What was measured:
His-FLAG-TBK1 = molecular target: T1, His-FLAG-TBK1 (mouse, UniProt Q9WUN2 1-729); assay: pull-down; GST fusion on Glutathione Sepharose beads with purified His-FLAG-TBK1 or His-FLAG-DNMT1, with or without heme, 2 h at 4°C; 20 mM HEPES pH 7.0, 50 mM NaCl, 2 mM TCEP; immunoblot; conditions: both partners purified
T1 construct: An HRV 3C protease site follows the N-terminal FLAG-8xHis tag; also called FLAG-His-TBK1; recombinant mouse His-FLAG-TBK1; source: Sf9 insect cells (baculovirus), purified (FLAG-M2 agarose, G-25 spin column); not shown: FLAG, N-terminal, kept; 8xHis, N-terminal, kept
T1 sequence (looked up): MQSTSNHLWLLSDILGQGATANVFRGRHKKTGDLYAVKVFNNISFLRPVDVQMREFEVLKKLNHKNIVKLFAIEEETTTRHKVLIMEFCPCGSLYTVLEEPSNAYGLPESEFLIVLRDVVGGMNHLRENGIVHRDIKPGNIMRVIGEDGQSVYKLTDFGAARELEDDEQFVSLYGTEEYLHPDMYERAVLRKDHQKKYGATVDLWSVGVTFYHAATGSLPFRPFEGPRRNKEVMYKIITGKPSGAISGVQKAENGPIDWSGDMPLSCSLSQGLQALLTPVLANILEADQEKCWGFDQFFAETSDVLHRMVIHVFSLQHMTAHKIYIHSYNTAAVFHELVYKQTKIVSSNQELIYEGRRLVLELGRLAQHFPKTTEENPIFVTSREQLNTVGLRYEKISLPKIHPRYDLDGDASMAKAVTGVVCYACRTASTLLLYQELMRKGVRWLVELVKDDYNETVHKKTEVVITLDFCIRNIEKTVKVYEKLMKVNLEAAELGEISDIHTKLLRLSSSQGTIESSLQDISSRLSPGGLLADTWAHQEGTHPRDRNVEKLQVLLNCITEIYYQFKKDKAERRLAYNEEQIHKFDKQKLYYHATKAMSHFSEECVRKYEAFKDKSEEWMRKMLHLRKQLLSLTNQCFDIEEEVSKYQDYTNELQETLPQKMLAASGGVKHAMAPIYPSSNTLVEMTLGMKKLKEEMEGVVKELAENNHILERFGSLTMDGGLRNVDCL

GST-BACH2_331-839 = GST-BACH2_331-839 (UniProt P97303 331-839); assay: EMSA; MafK presence not stated in the material; 32P-labeled ds probes, 30 min incubation, 4% polyacrylamide gel; buffer, salt, pH and temperature not stated; conditions: protein: recombinant; tags: N-terminal GST; label: 32P 5' end (PNK)

B1: GST-BACH2-IDR (domain or fragment, mouse, UniProt P97303 331-520, looked up)
chain: SRSVSSPSCLRSLFGITKGVESTGLPSTSQQPLVRSSACPFNKGISQGDLKTDYTPLAGNYGQPHVGQKDVSNFAMGSPLRGPGPETLCKQEGELDRRSVIFSASACDQPNTPVHSYSAVSNLDKDLSEPVPKSLWVGAGQSLPSSQAYSHSGLMADHLPGRIRPNTSCPVPIKVCPRSPPLETRTRTSS
notes: BACH2, mouse, intrinsically disordered region, amino acid region 331-520; Plasmid pGEX6P1-BACH2-IDR; also called recombinant BACH2-331-520 with GST kept; source: E. coli KRX, purified (Glutathione Sepharose 4B)
Question: Does B1 bind (His-FLAG-TBK1)?
Answer: Result: binds

B2: GST-BACH2-381-481 (domain or fragment, mouse, UniProt P97303 381-481, looked up)
chain: KTDYTPLAGNYGQPHVGQKDVSNFAMGSPLRGPGPETLCKQEGELDRRSVIFSASACDQPNTPVHSYSAVSNLDKDLSEPVPKSLWVGAGQSLPSSQAYSH
notes: made by PCR from pGEX6P1-BACH2-IDR; Cloned into pGEX-6P-1; source: E. coli KRX, purified (Glutathione Sepharose 4B)
Question: Does B2 bind (His-FLAG-TBK1)?
Answer: Result: binds

B3: Slc48a1-MARE (dsDNA)
DNA 1: GCACTCCACTTCTGACTCAGCATTTTGCAGCC
DNA 2: GGCTGCAAAATGCTGAGTCAGAAGTGGAGTGC
Question: Does B3 bind (GST-BACH2_331-839)?
Answer: Result: binds

Source: publication PMC11699347, “Heme regulates protein interactions and phosphorylation of BACH2 intrinsically disordered region in humoral response” (iScience, 2024)
